Measured values taken from PMC5293408 (Biochemistry, 2016).
Changes are numbered by the printed parent chain. In names and notes the source's numbering stands. Several values for one entry are separate records, joined by “and”; a condition that tells them apart may be missing. Equal values may be shown once. Read-outs that look alike come from different tables or passages of the source. One block for each molecule: values may come before it.

Key:
[1] = target: T1, hUGDHA136M (human UDP-glucose dehydrogenase A136M) (Homo sapiens, UniProt O60701, A136M); experiment: steady-state kinetics, global fit of competitive inhibition; assay type: biochemical
T1 sequence (O60701 1-494 A136M): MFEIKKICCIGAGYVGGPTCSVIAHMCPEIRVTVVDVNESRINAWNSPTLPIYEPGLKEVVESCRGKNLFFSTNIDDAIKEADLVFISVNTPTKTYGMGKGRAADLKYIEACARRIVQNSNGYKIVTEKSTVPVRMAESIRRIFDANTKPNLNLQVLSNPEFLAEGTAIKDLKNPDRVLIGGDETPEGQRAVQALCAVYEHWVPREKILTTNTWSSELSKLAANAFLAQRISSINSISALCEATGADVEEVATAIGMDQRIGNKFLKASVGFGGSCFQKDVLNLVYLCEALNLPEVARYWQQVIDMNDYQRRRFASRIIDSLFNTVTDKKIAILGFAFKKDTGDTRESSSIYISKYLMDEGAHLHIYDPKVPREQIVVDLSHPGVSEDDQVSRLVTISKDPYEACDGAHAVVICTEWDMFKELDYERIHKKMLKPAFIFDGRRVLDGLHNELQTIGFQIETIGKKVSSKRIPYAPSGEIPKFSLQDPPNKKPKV

[2] = substrate: NC(=O)c1ccc[n+]([C@@H]2O[C@H](COP(=O)([O-])OP(=O)(O)OC[C@H]3O[C@@H](n4cnc5c(N)ncnc54)[C@H](O)[C@@H]3O)[C@@H](O)[C@H]2O)c1; experiment: steady-state NAD+ saturation kinetics; assay type: biochemical, Homo sapiens; settings: NAD+ binding domain (NB); varied: cofactor
[3] = target: the molecule itself; experiment: AUC
[4] = target: the molecule itself; experiment: AUC; remark: listed apart in the source

- Ki [1]: 4.2 µM
Molecule: O=c1ccn([C@@H]2O[C@H](COP(=O)(O)OP(=O)(O)O[C@H]3OC[C@@H](O)[C@H](O)[C@H]3O)[C@@H](O)[C@H]2O)c(=O)[nH]1 [UDP-xylose]

B1: Human UDP-glucose dehydrogenase with the A136M substitution (enzyme)
chain: T1 sequence (O60701 1-494 A136M)
- Km [2]: 90 µM
- stoichiometry N [3]: 6 and 2 and 4

B2: Human UDP-glucose dehydrogenase (enzyme, UniProt O60701 1-494, looked up)
chain: T1 sequence (O60701 1-494 A136M) with M136A
- stoichiometry N [3]: 6
- stoichiometry N [4]: 2 and 4
